In patent publication US20220323445A1, “REDUCING IMMUNOGENICITY TO PEGLOTICASE” (Horizon Therapeutics Ireland DAC, priority 2020, published 2022):

System: patients with uncontrolled gout
Assay: Tender joint count (68-point) and swollen joint count (66-point), open-label study
Type: in vivo, human
Details: mITT
Description: Tender and Swollen Joint Counts: Tender and swollen (excludes hip) joint counts were recorded at the Week −4 or week −6 (prior to the first dose of MTX) Visit during the MTX Run-in Period for the open-label and randomized studies, respectively; prior to pegloticase infusion at the Day 1 and Weeks 14, 24 and 36 Visits, or at the Day 1 and weeks 6, 14, 20, 24, 30, 36, and 44 visits during the Pegloticase+IMM Period for the open-label and randomized studies, respectively; and at the End of Pegloticase Infusions Visit (if applicable) and the Week 52/End of Study/Early Termination Visit and the Post Treatment 3 and 6 month Follow-up visits. Tender and swollen joint counts were assessed by physical examination.

[1] = Day 1 vs Methotrexate Baseline, n=14
[2] = Early Termination Visit vs Methotrexate Baseline, n=3
[3] = Early Termination Visit vs Pegloticase Baseline, n=3
[4] = End of Pegloticase Infusions Visit vs Methotrexate Baseline, n=2
[5] = End of Pegloticase Infusions Visit vs Pegloticase Baseline, n=2
[6] = End of Pegloticase Infusions Visit, n=2
[7] = Week 14 vs Methotrexate Baseline, n=14
[8] = Week 14 vs Pegloticase Baseline, n=14
[9] = Week 24 vs Methotrexate Baseline, n=11
[10] = Week 24 vs Pegloticase Baseline, n=11
[11] = Week 36 vs Methotrexate Baseline, n=9
[12] = Week 36 vs Pegloticase Baseline, n=9
[13] = Week 52/ET vs Methotrexate Baseline, n=3
[14] = Week 52/ET vs Pegloticase Baseline, n=3

B1: pegloticase (protein)
chain: TYKKNDEVEFVRTGYGKDMIKVLHIQRDGKYHSIKEVATTVQLTLSSKKDYLHGDNSDVIPTDTIKNTVNVLAKFKGIKSIETFAVTICEHFLSSFKHVIRAQVYVEEVPWKRFEKNGVKHVHAFIYTPTGTHFCEVEQIRNGPPVIHSGIKDLKVLKTTQSGFEGFIKDQFTTLPEVKDRCFATQVYCKWRYHQGRDVDFEATWDTVRSIVLQKFAGPYDKGEYSPSVQKTLYDIQVLTLGQVPEIEDMEISLPNIHYLNIDMSKMGLINKEEVLLPLDNPYGKITGTVKRKLSSRL
modifications: monomethoxy PEG conjugated; Krystexxa Sequence
notes: covalent conjugate of uricase produced by a genetically modified strain of Escherichia coli and monomethoxypoly (ethylene glycol)
**Q.** Which results are given for B1?
**A.** Swollen Joint Count, Observed, Mean (SD) (Day 1, n=14): 5.3 (6.94); Swollen Joint Count, Observed, Median (Day 1, n=14): 3.5; Tender Joint Count, Observed, Mean (SD) (Day 1, n=14): 9.6 (11.03); Tender Joint Count, Observed, Median (Day 1, n=14): 7.0; Swollen Joint Count, Change from Baseline, Mean (SD) [1]: −0.7 (5.21); Swollen Joint Count, Change from Baseline, Median [1]: 0.5; Tender Joint Count, Change from Baseline, Mean (SD) [1]: −1.9 (9.75); Tender Joint Count, Change from Baseline, Median [1]: 0.0; Swollen Joint Count, Change from Baseline, Mean (SD) [2]: −1.0 (1.73); Swollen Joint Count, Change from Baseline, Median [2]: 0.0; Tender Joint Count, Change from Baseline, Mean (SD) [2]: 0.7 (5.13); Tender Joint Count, Change from Baseline, Median [2]: 2.0; Swollen Joint Count, Change from Baseline, Mean (SD) [3]: −3.3 (3.06); Swollen Joint Count, Change from Baseline, Median [3]: −4.0; Tender Joint Count, Change from Baseline, Mean (SD) [3]: −2.7 (4.16); Tender Joint Count, Change from Baseline, Median [3]: −4.0; Swollen Joint Count, Observed, Mean (SD) (Early Termination Visit, n=3): 0.7 (0.58); Swollen Joint Count, Observed, Median (Early Termination Visit, n=3): 1.0; Tender Joint Count, Observed, Mean (SD) (Early Termination Visit, n=3): 7.7 (8.96); Tender Joint Count, Observed, Median (Early Termination Visit, n=3): 3.0; Swollen Joint Count, Change from Baseline, Mean (SD) [4]: −7.0 (4.24); Swollen Joint Count, Change from Baseline, Median [4]: −7.0; Tender Joint Count, Change from Baseline, Mean (SD) [4]: −12.0 (7.07); Tender Joint Count, Change from Baseline, Median [4]: −12.0; Swollen Joint Count, Change from Baseline, Mean (SD) [5]: −2.0 (2.83); Swollen Joint Count, Change from Baseline, Median [5]: −2.0; Tender Joint Count, Change from Baseline, Mean (SD) [5]: −3.0 (5.66); Tender Joint Count, Change from Baseline, Median [5]: −3.0; Swollen Joint Count, Observed, Mean (SD) [6]: 0.0 (0.00); Swollen Joint Count, Observed, Median [6]: 0.0; Tender Joint Count, Observed, Mean (SD) [6]: 2.0 (2.83); Tender Joint Count, Observed, Median [6]: 2.0; Swollen Joint Count, Observed, Mean (SD) (Week 14, n=14): 1.7 (3.73); Swollen Joint Count, Observed, Median (Week 14, n=14): 0.0; Tender Joint Count, Observed, Mean (SD) (Week 14, n=14): 4.6 (6.16); Tender Joint Count, Observed, Median (Week 14, n=14): 2.0; Swollen Joint Count, Change from Baseline, Mean (SD) [7]: −4.3 (7.38); Swollen Joint Count, Change from Baseline, Median [7]: −2.0; Tender Joint Count, Change from Baseline, Mean (SD) [7]: −7.0 (14.20); Tender Joint Count, Change from Baseline, Median [7]: 0.0; Swollen Joint Count, Change from Baseline, Mean (SD) [8]: −3.6 (7.04); Swollen Joint Count, Change from Baseline, Median [8]: −2.5; Tender Joint Count, Change from Baseline, Mean (SD) [8]: −5.1 (8.12); Tender Joint Count, Change from Baseline, Median [8]: −5.0; Swollen Joint Count, Observed, Mean (SD) (Week 24, n=11): 0.5 (1.21); Swollen Joint Count, Observed, Median (Week 24, n=11): 0.0; Tender Joint Count, Observed, Mean (SD) (Week 24, n=11): 2.6 (3.88); Tender Joint Count, Observed, Median (Week 24, n=11): 0.0; Swollen Joint Count, Change from Baseline, Mean (SD) [9]: −6.6 (9.03); Swollen Joint Count, Change from Baseline, Median [9]: −3.0; Tender Joint Count, Change from Baseline, Mean (SD) [9]: −10.2 (14.27); Tender Joint Count, Change from Baseline, Median [9]: −4.0; Swollen Joint Count, Change from Baseline, Mean (SD) [10]: −5.1 (6.66); Swollen Joint Count, Change from Baseline, Median [10]: −3.0; Tender Joint Count, Change from Baseline, Mean (SD) [10]: −6.8 (8.16); Tender Joint Count, Change from Baseline, Median [10]: −4.0; Swollen Joint Count, Observed, Mean (SD) (Week 36, n=9): 0.1 (0.33); Swollen Joint Count, Observed, Median (Week 36, n=9): 0.0; Tender Joint Count, Observed, Mean (SD) (Week 36, n=9): 2.1 (4.54); Tender Joint Count, Observed, Median (Week 36, n=9): 0.0; Swollen Joint Count, Change from Baseline, Mean (SD) [11]: −7.8 (10.81); Swollen Joint Count, Change from Baseline, Median [11]: −3.0; Tender Joint Count, Change from Baseline, Mean (SD) [11]: −12.3 (14.56); Tender Joint Count, Change from Baseline, Median [11]: −7.0; Swollen Joint Count, Change from Baseline, Mean (SD) [12]: −6.2 (8.15); Swollen Joint Count, Change from Baseline, Median [12]: −4.0; Tender Joint Count, Change from Baseline, Mean (SD) [12]: −7.8 (8.94); Tender Joint Count, Change from Baseline, Median [12]: −4.0; Swollen Joint Count, Change from Baseline, Mean (SD) [13]: −21.0 (9.64); Swollen Joint Count, Change from Baseline, Median [13]: −25.0; Tender Joint Count, Change from Baseline, Mean (SD) [13]: −24.0 (21.38); Tender Joint Count, Change from Baseline, Median [13]: −17.0; Swollen Joint Count, Change from Baseline, Mean (SD) [14]: −13.0 (13.00); Swollen Joint Count, Change from Baseline, Median [14]: −13.0; Tender Joint Count, Change from Baseline, Mean (SD) [14]: −16.0 (17.52); Tender Joint Count, Change from Baseline, Median [14]: −15.0; Swollen Joint Count, Observed, Mean (SD) (Week 52/ET, n=3): 0.0 (0.00); Swollen Joint Count, Observed, Median (Week 52/ET, n=3): 0.0; Tender Joint Count, Observed, Mean (SD) (Week 52/ET, n=3): 5.3 (3.21); Tender Joint Count, Observed, Median (Week 52/ET, n=3): 4.0
